In the DeepSol protein solubility set:

Assay: soluble on expression in E. coli; label from the status in PepcDB or PDB records

Row | Sequence | soluble on expression in E. coli
1 | MGSDKIHHHHHHMNYDDPKKKVGRNIKRLRLKAGIKSQAALAELCGWKSQSRVGNYEAGTRAVSAIDAETLAKVLNVTPAEILYGENNKDDDFVSMPSAQYSSGPYEEEDPFQLFKPKQELQNAEWHAGFELWDGDTPLRDDEVALPFYREVELAAGSGSTFVQENGGCKLRFAKSTLKKSRVEPSNAACVTVSGNSMLPVLRHGTTVGVDTSKKSIIDGEMYAIDHDGMLRVKMLYRTPGGGIRIKSYNNDEFPDEFIPPEKASDIKIIGWVFWWSVLNVWNN | not soluble
2 | MMRCPECSTEGWRVLPLTVGAHVKEGLWSKIKGDFYFCSLESCEVVYFNEQTVFRKGELKTRVGVKEREEPKPVCYCNRVTEKMLLEAAEKFGKEKAVEITGAGKGKWCVVTNPSGRCCHWHLERLGFPV | soluble
3 | MSLSFDVVFVGHRRGEVRSDNAMLGLLCDAAFDELTRPDVVIFPGGIGTRTLIHDQTVLDWVREAHRHTLLTTSVCTGGLVLAAAGLLNGLTATTHWRVQDLFNSLGARYVPQRVVEHLPERVITAAGVSSGIDMGLRLVELLVSREAAEASQLMIEYDPQPPVDAGSLAKASPATHRLALEFYQHREGHHHHHH | not soluble
4 | METDNVLKRILEIEHGFVHILDAAKEILSSSSEERSFAIASEFFDHEAYQPRMLATAILGHLAGTNSEALLFLKDRVSLDMNWRVQEMLAKAFDTFCKEQGYEKSLPVIREWLDSDNANVVRAVTEGLRIWTSRPFFKENPCLAIEWLSRHRGHESEYVRKSVGNALKDISKKHKESVAEELKKWDLSDPLVLFTYKHASKHPDKDIKKQ | not soluble
5 | MQCCVQLVPFWDTSGVSTMFDYQVSKHPHFDEACRAFALRHNLVQLAERAGMNVQILRNKLNPAQPHLLTAPEIWLLTDLTEDSTLVDGFLAQIHCLPCVPINEVAKEKLPHYVMSATAEIGRVAAGAVSGDVKTSAGRRDAISSINSVTRLMALAAVSLQARLQANPAMASAVDTVTGLGASFGLL | not soluble
6 | MGSDKIHHHHHHMKLKYVLYMAAALSLTGCNDSFLERGPQNLNDQSFWISVNDLKAYANAFYGLIPGGVSVLDDTDSDIQVPNDINSFLWGQYVVPTEGGVWQKSNWQNIRNINYFMTHYQSVQAAEADVNIYVAEMRFFRALEYFNKIQLLGDVPWLEVDLNVDSEELYGPKMKRNQVFQKIIEDLDFAIQWLPEAGSEEANRLNKDIARHVKARFCLNEGTHYKYHDELEYASEAEKWLQMAATESDKLITSGRYEIYNTGHPQEDYFNMYRIDDKSDLKEAVLYVDYKTNIREHNMAAAGREAGCGFSKSFVESFLCSDGLPISLSNKYLGDETMRKETANRDPRLKQLILTNDFPTNVTDDLKDSTFVVNEDEFITQHCFTGYRPIKGFNPIYSQALYMKSSFDGIAYRYAETLLINAEAKAELNTITNADLDRTVNQLRDRVGMPHLTVM | not soluble
7 | MGTYVEPSKLSYGEYLESWFNTKRHSVGIQTAKVLKGYLNSRIIPSLGNIKLAKLTSLHMQNYVNSLRDEGLKRGTIEKIIKVIRNSLEHAIDLELITKNVAAKTKLPKADKEELEHHHHHH | not soluble
8 | MDVASALEGNWEFRVDHKNIKIFSSKIRGSQVLGFKGEAVFEASLRKLISLFHDFGNYGKWVHQLSEMEVLHKSDELDYVVRQVLNTPWPIPKREMIVRTALHASEEGALALTMTGIPDYVPLKPDFHRVREARGGWILMPVDGGKVHVTFVMHLDPGSDIPPALSNAALFEVPFYSLLKMRDLAQNPSYKPAWPSVVDNHVTIIEDVPDKHLEHHHHHH | soluble
9 | MNNPEESAVTDLRKFTNLVLNGLVDEEATAAALIRYQFQQRTIKDVVRRGSEDPELKAQICDLLNHLVIYLNEEIVETSSKACPDGMDDRHFVQLEKRMHLMFEVYLAMNVVPDYLIPDLTKHVDASREAVKYSYSLCKDYYRWKELPLTLKEFFLDEKEEVKAVVDEPEPTMFARDDGVVSSLAHEKAQSDEDGKKKQFVAKTEKVLNNYRAKNPDYRTMRELINAKTKFRLEGIYCDSLIDDFISVWDMAIDIEPVKTEDKFAFTSLLKKVFLMMVDKRRNDFASKILDKYNNDASGVLPCLDNFVENFQTGLTAAINNLPLDANVLSNNMELFEKAKDPIIWYLLISPAYTVQQILLICVDNKGYVPLVSRIFRAIPTLFERSVNLTPMHFEGFKTQKLLITILHRVFIIGRTTWTSASQWENAAMMTMSFAKERKRKEGQPEKVEDKALLDSFSLVNFALNELFKDYRKPLKAVEIFVKMLQRLLANNNNARMLTNYQFSSSFFDDGNNYLPTSIIMLLMFDLLVEYDGQSNEVCDGARDILKSVSGRLNNDNIIFDTDTCRHLIDEKLNYAPWWIKYSICSWFSSSLQNPKKQVPSGVYKTIAEQHLDEFEQIKPEEVSTVSDCYFRSLFELGLFDVDLAIELLQYGHVAKFESSVVEKIALALVDSYGKKMSKRSGGLDIGKLIISMLQNSSYLESVKKIEHILVLFMAARIAKEKQLSAARVRTDDTIQTAYDEVISLNQVSDQLMDIFCETTKAHVDKEVMEVEQMRREVEVLLFSTPGTTPNQFKAMVEKENREQSLALQLSMIYLNCSYFCRLYQQVPIKLQQLMNSTLEKQFDSQKFLAKKVMDDVLTEKRKTEVVYAFVDTPVEPTPNEDNIQPVKPAELFRPPVVENVSVESTTYNSNGGGYRQGRYQTGYQGKNRRSNFEQPTSSRGSGRSDRTYAYKGNRFQPVNDSHVFAPRERENVYQNSSHDRDIPRNDYSEYDQEKLYLDDKQPRFHSENRNSNDVRRYSESKDSKYDNKNWNNRSSRWPSESEYSQEDSENRHLDQTIQSVRKFSYRENQQKHNRPGTSSASPPKNQEWKQHQQQKKSFGGGFGENGNKFNGNSRKQPERKPRYTSSNFYEQDEDSLQLLKPDRNELAQAMGLNDPPNPPKPRRSEWTRR | not soluble
10 | DSSALPTKRKTVKLFWRELKLAGGHGVSASRFGPCATLWASLDPVSVDTARLEHLFESRAKEVLPSKKAGEGRRTMTTVLDPKRSNAINIGLTTLPPVHVIKAALLNFDEFAVSKDGIEKLLTMMPTEEERQKIEEAQLANPDIPLGPAENFLMTLASIGGLAARLQLWAFKLDYDSMEREIAEPLFDLKVGMEQLVQNATFRCILATLLAVGNFLNGSQSSGFELSYLEKVSEVKDTVRRQSLLHHLCSLVLQTRPESSDLYSEIPALTRCAKVD | not soluble
11 | MPSYTLTQLASAVRNCLESGFPGRYWVSAETSGVRVGISGHCYLELLDKDTSGSQVTARMKAMIWASDYATLSGRFQRETGETFDSGLHVLVLVSVSYHEQYGLSLRILDIDPSYTMGAMARKRKEIIEELRRQGLYDLNRSLSLPRPTQRIAIVSSGAAAGFEDFIAHLSHSAEHFCFYPVLFQAVMQGAQTEASVLGALERIAYHRDSFDVVVIIRGGGAVSELAAFDSLAIGQACARFPLPILTGIGHDRDETVVDLVAYRSLKTPTAVADFLVNCQREEWKLIDDLRSRAAEGLRMMMMYCHERLIQLSLRTPAILKSSVREEHHRIKSVEDRIRLAAKQRIAFGLQQLQIASRSLPALMKSELKQNTGQLDQVAARLPLLVTANLKNYNRRLETNEQAIRLLHPNATLRRGFAIVLKDDKAIRSHSELHKGDHLVAQFADGSVSAVVDQPQKGKH | not soluble
12 | MASSFDNQMDQDGMCSVYSAQPSETNCSINEVLAKEIIAVNETPDDQADSSIYPIPKSETNVSASEGFQPCQDINQFNLSVYSAPKSETPVTMNEKFERCKDLMNVLDYSVYSMPPSEANVTMNVASFSEYTALASETNVTMADVLKNVAQDLASEHTAKSAHPTFDTTAYVERLQAELGIPDSKVIGLECSNFSNAKIIDSIECLHQLDKFQPIPVDFDQNPDFGKTAKSVESYLLRSSNASSIHHEI | not soluble
13 | MPLPPDITFDSLALIKMHSQNMKRILEVTLAKFTVNLSIVTVYRYLTARAYLKKNIEAEFEILKDIYNIVPLLDDIAIKAAQIEANLIKKEITLDMEDIITATTAIYTNSLLVTDDPKRYEPIRRFGLDTMPLDKFIKEVELMVEKELI | soluble
14 | MFKTIDTNQKDVKLTVFSSDEKSFMVTATLVEKAGHAFLINSKFTQSDSKEIVEYLKKNNLSLDKIFIIHGDPDYYFGLESIKAVYPEAIAYATESTVEHIVHSVLGKLKVWKDALGENAPSNVVLPQVFKEKAIDFQGLTFELVGLEHYRTSLFNKELKVLIGGIDVFNEIHVFLADTSSKAAMEAWIENLKVLQALHADIIVPSHGSIEKSLNNQALTATMDYLRTAVQASEESGTSKDFVAKLEAAYPDYANKGVLELSAKVVTKEMPWGLEHHHHHH | soluble
